Assay [1] addresses LgTrip 3546 (with His tag; SEQ ID NO: 51). Kind of assay: luminescence complementation; SmTrip9 Kd. The following applies: modification not given.
Assay [2] has the same target. Description: luminescence complementation. The conditions noted are these: modification not given.

In general, Kd refers to the free concentration of one partner at which half of the binding sites on the other are occupied at equilibrium, for simple one-to-one binding. A higher Kd goes with lower affinity.

Chain of LgTrip 3546 (with His tag; SEQ ID NO: 51) (chain, as listed by the source): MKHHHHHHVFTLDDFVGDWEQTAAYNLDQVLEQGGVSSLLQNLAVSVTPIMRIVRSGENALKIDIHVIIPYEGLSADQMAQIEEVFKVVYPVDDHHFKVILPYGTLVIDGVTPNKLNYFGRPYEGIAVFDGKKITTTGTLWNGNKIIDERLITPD

Consider DKLLFTVTIGKWK [793], for which the dissociation constant (Kd) in assay [1] is 540 nM.

In assay [2], DLMLFRVTINSWK [657] had a Kd of 70 nM.

GSMLFRVTINSYK [619] returned a Kd in assay [2] of 1510 nM.

Turning to EKMLFKVTIQKWK [714], the Kd in assay [2] was 220 nM.

In the case of GRMLFRVTINRWR [768], the Kd in assay [1] came to 100 nM.

ERMLFRVTIGRWR [766] displayed a Kd in assay [1] of 70 nM.

DKLLFTVTINKYK [800] showed a Kd in assay [1] of 9750 nM.

In assay [2], GKMLFRVTISKWK [670] showed a Kd of 30 nM.

Molecule DRMLFRVTIQRWR [762] displayed a Kd in assay [1] of 120 nM.

EKMLFTVTIGKWK [710] yielded a Kd in assay [2] of 1290 nM.

In turn, GKMLFRVTIEKWK [703] came in with a Kd in assay [2] of 110 nM.

The molecule DKMLFKVTIQKWK [744] yielded a Kd in assay [2] of 1130 nM.

Molecule DKMLFKVTIEKWK [752] yielded a Kd in assay [2] of 320 nM.

In assay [2], EKMLFRVTIGKWK [708] yielded a Kd of 280 nM.

DKMLFKVTIQKYK [783] returned a Kd in assay [1] of 240 nM.

On to GKMKFRVTIKSWK [718], for which the Kd in assay [2] turned out to be 380 nM.

On to EKLLFRVTIGKYK [726], for which, in assay [2], the dissociation constant (Kd) stood at 640 nM.

DRMLFRVTIERWR [770] showed a Kd in assay [1] of 350 nM.

EKMLFTVTIGRWK [712]: the equilibrium dissociation constant (Kd) in assay [2] turned out to be 370 nM.

In assay [1], DKMLFRVTINKWK [784] returned a Kd of 410 nM.

With GKMKFRVTIRSWK [719], the Kd in assay [2] is 370 nM.

In the case of GKMLFRVTIGNWK [669], the Kd in assay [2] came out at 380 nM.

Turning to GKMSFRVTINSWK [616], the Kd in assay [2] amounted to 1230 nM.

GKMWFRVTINSWK [617]: the Kd in assay [2] came to 320 nM.

The molecule DKLLFKVTIEKWK [754] registered a Kd in assay [2] of 750 nM.

With DKLLFTVTINKWK [799], the Kd in assay [1] came to 210 nM.

EQMLFRVTINSWK [656]: the Kd in assay [2] was 6260 nM.

For DKMLFRVTIQNWK [741], the Kd in assay [2] amounted to 12600 nM.

DKLLFKVTIQKYK [747] came in with a Kd in assay [2] of 100 nM.

The molecule DKLLFKVTIGKYK [751] came in with a Kd in assay [2] of 610 nM.

As for ELMLFRVTINSWK [655], the dissociation constant (Kd) in assay [2] amounted to 15900 nM.

EKLLFTVTIGKWK [711] returned a Kd in assay [2] of 500 nM.

For GKMKFRVTIESWK [717], in assay [2], the Kd stood at 1140 nM.

GKMLFRVNINSWK [613] returned a Kd in assay [2] of 5250 nM.

The molecule DKLLFKVTIQKWK [746] yielded a Kd in assay [2] of 1100 nM.

Turning to DKMLFRVTIGKWK [739], the Kd in assay [2] is 200 nM.

Regarding DKMLFTVTIEKWK [753], the figures for the Kd in assay [1] and in assay [2] were 150 nM and 120 nM, respectively.

As for GKMNFRVTINSWK [618], the Kd in assay [2] was 2690 nM.

Regarding KQMLFRVTINSWK [654], the Kd in assay [2] was 60 nM.

The molecule RLMLFRVTIGKWK [676] registered a Kd in assay [2] of 20 nM.

GKMLFRVTINRWK [701] displayed a Kd in assay [2] of 120 nM.

Molecule DKLLFKVTIEKYK [755] yielded a Kd in assay [2] of 1450 nM.

Take KKLLFRVTIQKWK [761]: the Kd in assay [1] was 20 nM.

DKMLFKVTINKWK [787] gave a Kd in assay [1] of 730 nM.

EKMLFRVTIGRWK [709] gave a Kd in assay [2] of 180 nM.

As to KKMLFRVTIQKWK [760], the Kd in assay [1] worked out at 20 nM.

On to GKMLFKVTINKWK [781], for which the Kd in assay [1] is 380 nM.

In assay [2], DKLLFKVTIGKWK [750] registered a Kd of 350 nM.

The molecule DKMLFRVTIGNWK [740] yielded a Kd in assay [2] of 3650 nM.

Regarding GKMLFRVTIKSWK [621], the Kd in assay [2] is 40 nM.

In assay [1], DKMLFKVTIEKYK [785] showed a Kd of 380 nM.

EKMLFTVTIEKWK [720]: the Kd in assay [2] turned out to be 360 nM.

Consider DKMLFTVTINKWK [786], for which the Kd in assay [1] was 500 nM.

In turn, DKMLFRVTIESWK [722] gave a Kd in assay [2] of 17800 nM.

In assay [2], GKMKFRVTIQSWK [716] came in with a dissociation constant Kd of 290 nM.

In assay [2], RLMLFRVTINSWK [651] showed a Kd of 40 nM.

Regarding GKMLFRVTIKKWK [673], the Kd in assay [2] stood at 40 nM.

For DKLLFTVTIGKYK [794], the Kd in assay [1] was found to be 230 nM.

GKMLFRVTITKWK [672]: the equilibrium dissociation constant (Kd) in assay [2] came out at 10 nM.

For the molecule KLMLFRVTINSWK [653], in assay [2], the Kd came out at 160 nM.

As to GKMLFRVSINSWK [614], in assay [2], the Kd was determined as 2580 nM.

On to GKMLFTVTINKWK [782], for which the Kd in assay [1] is 360 nM.

In assay [2], DQMLFRVTINSWK [658] returned a Kd of 4380 nM.

Turning to GKMLFRVWINSWK [615], the Kd in assay [2] worked out at 350 nM.

As for RQMLFRVTINSWK [652], in assay [2], the Kd came out at 30 nM.

As for EKMLFRVTIEKWK [707], the Kd in assay [2] turned out to be 1120 nM.

Consider DKMLFKVTIGKWK [748], for which the Kd in assay [2] came to 440 nM.
